Test results published in patent US20050277167.
“Also recorded” adds a separate entry of the source.

Target: [2,3-3H]-L-proline-labeled procollagen substrate

B1: chicken prolyl 3-hydroxylase 1 (chicken P3H1) (protein)
chain: AGPPGPLGPPEHSEPPLPAEPPDALFAAGAEAYARGDWPAVVLQMERALRARAAIRARSVRCRLRCANATAVVPTDGLEPTLHDLLFFRGLLRRAACLRGCGPTQPSRYRLGEELEREFRKRSPYNYLQVAYFKINKVAKAVAAAHTFFVANPEHVEMKQNLEYYQMMAGVRESDFADLEARPHMTEFRLGVRFYSEEQPAAAVLHLEKALQEYFVADTECRALCEGPYDYEGYNYLEYNADLFQAMTDHYMQVLSCKQGCVTELASQPGREKPLEDFLPSHFNYLQFAYYNNGNYEKAIECAKTYLLFFPNDEVMNQNLAYYTAVLGEDLARPIEPRKEIQAYRQRSLMEKELLFFSYDVFGIPFVDPDTWTPEEVIPKRLREKQKVERETAARISEEIGNLMKEIETLVEEKAKESAEMSKFIREGGPLVYEGASVTMNSKSLNGSQRVVVDGVLSAEECRELQRLTNAAASAGDGYRGKTSPHTPSETFYGVTVLKALKLGQEGKVPLQSAHLYYNVTEKVRHMMESYFRLEVPLHFSYSHLVCRTAIDEKQEGRSDNSHEVHVDNCILNAEALVCVKEPPAYTFRDYSAILYLNGDFEGGAFYFTELDAKTQTAEVQPQCGRAVGFSSGSENPHGVKAVTKGQRCAIALWFTLDPRHSERERVQADDLVKMLFRTEEVDLLQETSAEQEPTAATSTAGLHAAGKDEL
Km; prolyl 3-hydroxylase activity as release of tritiated water (THO), double reciprocal plot: a Km of 179 µl of substrate per 2 mls reaction volume; also recorded: or 89.5 µl of substrate per ml
